Measurements as given in PMC6192195, “Hampered motility promotes the evolution of wrinkly phenotype in Bacillus subtilis” (BMC Evolutionary Biology, 2018).
Numbering of substitutions follows the chain as printed. Names and notes keep the numbering of the source.

B1: IR-DNA (SinR operator inverted repeat) (dsDNA)
DNA 1: TTTGTTCTCTAAAGAGAACTTA
DNA 2: TAAGTTCTCTTTAGAGAACAAA
B2: SinR (wild type), master repressor of biofilm-related genes (natural protein, Bacillus subtilis)
chain: MIGQRIKQYRKEKGYSLSELAEKAGVAKSYLSSIERNLQTNPSIQFLEKVSAVLDVSVHTLLDEKHETEYDGQLDSEWEKLVRDAMTSGVSKKQFREFLDYQKWRKSQKEE
notes: SinR of Bacillus subtilis; Tetramer by analytical SEC; also called SinR^WT; wildtype SinR; source: E. coli BL21(DE3), purified (Ni-NTA, SEC)
B3: SinR-L99S variant (natural protein, Bacillus subtilis)
chain: B2 chain with L99S
notes: SinR of Bacillus subtilis with L99S, made by two-step PCR mutagenesis of the sinR construct in pET24d; L99S arose spontaneously in the wrinkly isolates (WTWS1, ΔhagWS2) during pellicle growth in the laboratory; the recombinant protein was made by site-directed mutagenesis; Tetramer by analytical SEC; source: E. coli BL21(DE3), purified (Ni-NTA, SEC)
B4: SinI^9-39 peptide (SinI protein from amino acid 9 to 39) (peptide, UniProt P23308 9-39, looked up)
peptide: FELDQEWVELMVEAKEANISPEEIRKYLLLN
notes: SinI, antagonist (anti-repressor) of SinR, Bacillus subtilis, amino acids 9-39; Synthesized with a free amine at the N-terminus and a free acid group at the C-terminus; also called SinI peptide; truncated version of SinI; source: synthetic peptide (peptides&elephants GmbH)

Columns and labels:
SinI (Bacillus subtilis) = SinI (Bacillus subtilis) (UniProt P23308); conditions: cited from earlier work
Sequence of SinI (Bacillus subtilis) (P23308 whole entry): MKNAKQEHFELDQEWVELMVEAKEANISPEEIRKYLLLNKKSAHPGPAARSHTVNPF

SinR [1] = target: T1, SinR (Bacillus subtilis 168 (sequence …, UniProt P06533 1-111)); assay: ITC; binding site 1 of two-sites model; N1 = 0.264 +/- 0.0114; ITC: buffer C (20 mM HEPES/NaOH, 500 mM NaCl; pH not stated for buffer C, 8.0 for buffers A/B), 25 °C; 30 µM SinR in cell, 150 µM IR-DNA titrated in; conditions: protein: recombinant; tags: C-terminal His6; chain copies: 4; blunt
T1 sequence: B2 chain

SinR-L99S = target: T2, SinR-L99S (Bacillus subtilis 168 (sequence …, UniProt P06533 1-111, L99S)); assay: ITC; binding site 1 of two-sites model; comparable to wild type; ITC: buffer C (20 mM HEPES/NaOH, 500 mM NaCl; pH not stated for buffer C, 8.0 for buffers A/B), 25 °C; 30 µM SinR in cell, 150 µM IR-DNA titrated in; conditions: protein: recombinant; tags: C-terminal His6; chain copies: 4; blunt
T2 sequence: B2 chain with L99S

SinR [2] = target: T1, SinR; assay: ITC; binding site 2 of two-sites model; N2 = 0.143 +/- 0.0123; ITC: buffer C (20 mM HEPES/NaOH, 500 mM NaCl; pH not stated for buffer C, 8.0 for buffers A/B), 25 °C; 30 µM SinR in cell, 150 µM IR-DNA titrated in; conditions: protein: recombinant; tags: C-terminal His6; chain copies: 4; blunt
[3] = target: the molecule itself; assay: SEC; analytical SEC, Superdex 200 Increase 10/300 GL; SinR or SinR-L99S alone (tetrameric state also seen with IR-DNA)
SinR-L99S variant [4] = target: T3, SinR-L99S variant (Bacillus subtilis, UniProt P06533 1-111, L99S); assay: ITC; first site (two-site model)
T3 sequence: B2 chain with L99S

[5] = target: T4, SinR (wild type), master repressor of biofilm-related genes (Bacillus subtilis, UniProt P06533 1-111); assay: ITC
T4 chain: B2 chain

SinR-L99S variant [6] = target: T3, SinR-L99S variant; assay: ITC; second site (two-site model)
SinR-L99S variant [7] = target: B3; assay: ITC; 250 uM SinI 9-39 peptide titrated into 25 uM SinR or SinR-L99S in the cell, 25 °C, buffer C (20 mM HEPES/NaOH, 500 mM NaCl); apparent KD; one-site model for wild type, two-sites model for L99S; conditions: both partners purified
[8] = target: B2; assay: as above; conditions: both partners purified

Q: With SinR (from UniProt P06533) as the molecule, how does the Kd (SinI (Bacillus subtilis)) read?
A: The Kd was less than 10 nM.

Q: What does the source list for B1?
A: Kd (SinR [1]): ~121 nM; Kd (SinR-L99S): ~99 nM; Kd (SinR [2]): ~6 nM

Q: Which “stoichiometry N” value [3] does the source give for B2 here?
A: The value was 4.

Q: For B3, which “stoichiometry N” value [3] is on record?
A: Its value is 4.

Q: What does the source list for B4?
A: Ka (SinR-L99S variant [4]): 6.16e+06 M⁻¹; Ka [5]: 1.41e+08 M⁻¹; Ka (SinR-L99S variant [6]): 1.75e+06 M⁻¹; KD site 1 (SinR-L99S variant [7]): ~162 nM; KD site 2 (SinR-L99S variant [7]): ~571 nM; dH binding event 1 (SinR-L99S variant [7]): -3.93 ± 1.45 kcal/mol; dH binding event 2 (SinR-L99S variant [7]): -15.2 kcal/mol; stoichiometry N (SinR-L99S variant [7]): ~1.35; Kd [8]: ~7 nM; dH [8]: -3.75 ± 0.136 kcal/mol; stoichiometry N [8]: 1.2 ± 0.02
